Assays:
Assay in all cases: SPR (Biacore), PEP07843 immobilized, analyte protein injected
hIL-1beta = hIL-1beta (human, UniProt P01584 117-269)
Protocol: (§1) In the binding experiment, HBS-EP was used as running buffer and the flow rate was 30 μl/min. […] The analytes, i.e. the panels of 24 or 12 different proteins, were each diluted in HBS-EP or HBS-EP supplemented with 500 mM NaCl to final concentrations of from 0.4 to 250 nM and injected for 5 min. […] The results were analyzed using the BiaEvaluation software.
(§2) The Z-ABD-Z polypeptides were injected over surfaces containing HSA followed by injection of the analyte proteins.

hIL-6 = hIL-6 (human, UniProt P05231 29-212)
Protocol: as §1, §2

[1] = biological target: T1, Haptoglobin Human (seems to be beta chain) (human, UniProt P00738 162-406, limits assumed)
T1 sequence (looked up): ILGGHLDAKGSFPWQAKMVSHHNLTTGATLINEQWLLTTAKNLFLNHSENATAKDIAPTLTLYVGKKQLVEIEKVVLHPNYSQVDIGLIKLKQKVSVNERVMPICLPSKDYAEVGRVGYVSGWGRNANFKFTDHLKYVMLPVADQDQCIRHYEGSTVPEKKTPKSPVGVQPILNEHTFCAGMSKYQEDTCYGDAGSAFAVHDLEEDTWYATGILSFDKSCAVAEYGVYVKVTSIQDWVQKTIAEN
Protocol: as §1, §2

[2] = biological target: Alpha-1-antitrypsin (SERPINA1 Human) (human, UniProt P01009 25-418)
Protocol: as §1, §2

Human a-2 macroglobulin = biological target: T2, Human a-2 macroglobulin (human, UniProt P01023 24-1474)
T2 sequence (looked up): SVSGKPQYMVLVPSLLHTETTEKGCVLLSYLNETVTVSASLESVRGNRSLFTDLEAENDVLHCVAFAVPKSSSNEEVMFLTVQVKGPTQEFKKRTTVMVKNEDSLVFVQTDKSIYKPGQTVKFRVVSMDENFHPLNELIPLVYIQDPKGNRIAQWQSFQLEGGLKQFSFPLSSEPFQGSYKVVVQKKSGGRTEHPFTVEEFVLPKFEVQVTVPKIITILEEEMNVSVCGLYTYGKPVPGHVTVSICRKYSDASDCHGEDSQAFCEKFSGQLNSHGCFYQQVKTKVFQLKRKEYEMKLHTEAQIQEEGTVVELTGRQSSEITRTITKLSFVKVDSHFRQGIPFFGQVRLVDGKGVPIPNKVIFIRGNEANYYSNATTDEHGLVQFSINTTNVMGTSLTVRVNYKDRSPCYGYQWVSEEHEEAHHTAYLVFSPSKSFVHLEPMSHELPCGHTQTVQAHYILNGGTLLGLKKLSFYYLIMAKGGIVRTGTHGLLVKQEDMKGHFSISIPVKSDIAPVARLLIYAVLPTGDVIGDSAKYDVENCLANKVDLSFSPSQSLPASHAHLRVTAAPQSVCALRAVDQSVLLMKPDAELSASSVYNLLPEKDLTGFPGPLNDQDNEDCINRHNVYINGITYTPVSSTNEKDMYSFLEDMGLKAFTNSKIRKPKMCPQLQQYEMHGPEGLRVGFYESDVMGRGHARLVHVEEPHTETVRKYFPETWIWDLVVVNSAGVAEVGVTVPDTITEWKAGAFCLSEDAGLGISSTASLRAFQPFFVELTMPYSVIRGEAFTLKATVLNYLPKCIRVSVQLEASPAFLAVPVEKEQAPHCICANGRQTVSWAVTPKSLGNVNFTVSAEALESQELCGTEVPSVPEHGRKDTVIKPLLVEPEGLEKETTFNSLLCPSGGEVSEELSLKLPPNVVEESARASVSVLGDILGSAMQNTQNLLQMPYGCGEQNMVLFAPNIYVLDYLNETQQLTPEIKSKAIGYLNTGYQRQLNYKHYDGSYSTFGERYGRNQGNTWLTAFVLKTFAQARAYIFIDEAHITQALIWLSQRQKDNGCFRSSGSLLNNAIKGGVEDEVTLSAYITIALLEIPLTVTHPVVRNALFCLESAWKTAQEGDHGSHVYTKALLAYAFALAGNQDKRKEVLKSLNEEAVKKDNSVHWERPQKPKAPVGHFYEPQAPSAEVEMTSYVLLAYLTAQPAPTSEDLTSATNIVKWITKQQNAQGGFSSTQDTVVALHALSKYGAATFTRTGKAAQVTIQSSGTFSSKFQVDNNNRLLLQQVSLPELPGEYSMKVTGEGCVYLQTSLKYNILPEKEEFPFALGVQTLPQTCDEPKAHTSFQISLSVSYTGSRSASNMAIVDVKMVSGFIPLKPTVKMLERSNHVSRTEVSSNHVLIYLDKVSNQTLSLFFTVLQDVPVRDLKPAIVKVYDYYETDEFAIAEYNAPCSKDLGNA
Protocol: as §1, §2

[3] = biological target: T3, Human Hemopexin/HPX Protein (human, UniProt P02790 24-462)
T3 sequence (looked up): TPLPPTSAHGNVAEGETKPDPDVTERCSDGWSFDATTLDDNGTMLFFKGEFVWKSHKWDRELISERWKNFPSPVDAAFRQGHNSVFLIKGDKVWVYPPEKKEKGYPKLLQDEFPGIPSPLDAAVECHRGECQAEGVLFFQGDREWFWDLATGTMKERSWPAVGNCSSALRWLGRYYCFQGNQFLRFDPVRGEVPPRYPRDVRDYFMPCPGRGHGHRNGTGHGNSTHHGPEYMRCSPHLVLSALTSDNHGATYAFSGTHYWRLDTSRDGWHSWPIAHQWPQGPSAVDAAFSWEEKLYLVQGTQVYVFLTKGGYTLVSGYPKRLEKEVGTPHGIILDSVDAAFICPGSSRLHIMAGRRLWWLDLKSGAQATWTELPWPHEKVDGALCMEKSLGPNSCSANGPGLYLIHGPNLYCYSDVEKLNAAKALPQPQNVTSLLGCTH
Protocol: as §1, §2

hIL-17C = biological target: T4, hIL-17C (human, UniProt Q9P0M4 19-197)
T4 sequence (looked up): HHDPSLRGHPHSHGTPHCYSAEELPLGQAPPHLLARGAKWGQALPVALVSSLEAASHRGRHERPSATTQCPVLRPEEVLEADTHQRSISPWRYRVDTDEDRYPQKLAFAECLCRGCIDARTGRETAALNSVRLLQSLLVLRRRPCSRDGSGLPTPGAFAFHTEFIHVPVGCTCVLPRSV
Protocol: as §1, §2

Measured: binding result

Sequence of Alpha-1-antitrypsin (SERPINA1 Human) (P01009 25-418 limits assumed): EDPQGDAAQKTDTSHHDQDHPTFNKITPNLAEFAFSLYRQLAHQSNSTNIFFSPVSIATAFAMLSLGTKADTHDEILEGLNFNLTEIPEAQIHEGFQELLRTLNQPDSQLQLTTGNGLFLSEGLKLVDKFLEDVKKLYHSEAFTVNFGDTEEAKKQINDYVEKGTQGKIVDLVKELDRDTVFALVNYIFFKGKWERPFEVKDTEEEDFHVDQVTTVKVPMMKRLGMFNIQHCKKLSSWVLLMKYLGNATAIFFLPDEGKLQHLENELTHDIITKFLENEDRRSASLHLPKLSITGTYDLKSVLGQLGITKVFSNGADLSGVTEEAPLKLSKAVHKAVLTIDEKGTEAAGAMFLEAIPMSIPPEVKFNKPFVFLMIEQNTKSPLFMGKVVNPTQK

GSSLAEAKEAANAELDSYGVSDFYKRLIDKAKTVEGVEALKDAILAALP (designed binder) [ABD variant PEP07843]
no binding (tested: 50, 250 nM): hIL-1beta | hIL-6 | [1] | [2] | Human a-2 macroglobulin | [3] | hIL-17C

Source: patent US20250101074A1 (Affibody, published 2025)
